Consider one molecule from patent publication US20040223972A1 (FUNCTIONAL GENETICS, published 2004).

The experiment addresses biotinylated peptide Bio-….

B1: purified TSG101 protein that contains only the UEV domain, Q99816 1-145 (protein)
chain: MAVSESQLKKMVSKYKYRDLTVRETVNVITLYKDLKPVLDSYVFNDGSSRELMNLTGTIPVPYRGNTYNIPICLWLLDTYPYNPPICFVKPTSSMTIKTGKHVDANGKIYLPYLHEWKHPQSDLLGLIQVMIVVFGDEPPVFSRP
A word on the Kd: it is a measure of binding affinity in units of concentration. Low values mean tighter binding, high ones weaker binding. Turning to B1, the Kd was determined as 2000 nM.
